# Results reported in patent US20080020978A1 (Amgen, published 2008).
# Bridge positions count the residues as written; N and C are the ends. Square brackets hold non-standard residues; d marks the D form. Oic = O=C(O)[C@@H]1C[C@@H]2CCCC[C@@H]2N1; 1Nal = N[C@@H](Cc1cccc2ccccc12)C(=O)O; Igl = N[C@H](C(=O)O)C1Cc2ccccc2C1; hArg = N=C(N)NCCCC[C@H](N)C(=O)O; Cit = NC(=O)NCCC[C@H](N)C(=O)O; Phg = N[C@H](C(=O)O)c1ccccc1; Nle = CCCC[C@H](N)C(=O)O
# Target: CGRP1 receptor (CRLR/RAMP1 complex) of human neuroblastoma SK-N-MC cells (human, UniProt Q16602 23-461; O60894 27-148)
# Assay: cell-based or functional assay
# Sequence of CGRP1 receptor (CRLR/RAMP1 complex) of human neuroblastoma SK-N-MC cells (Q16602 23-461, chain 1 of 2): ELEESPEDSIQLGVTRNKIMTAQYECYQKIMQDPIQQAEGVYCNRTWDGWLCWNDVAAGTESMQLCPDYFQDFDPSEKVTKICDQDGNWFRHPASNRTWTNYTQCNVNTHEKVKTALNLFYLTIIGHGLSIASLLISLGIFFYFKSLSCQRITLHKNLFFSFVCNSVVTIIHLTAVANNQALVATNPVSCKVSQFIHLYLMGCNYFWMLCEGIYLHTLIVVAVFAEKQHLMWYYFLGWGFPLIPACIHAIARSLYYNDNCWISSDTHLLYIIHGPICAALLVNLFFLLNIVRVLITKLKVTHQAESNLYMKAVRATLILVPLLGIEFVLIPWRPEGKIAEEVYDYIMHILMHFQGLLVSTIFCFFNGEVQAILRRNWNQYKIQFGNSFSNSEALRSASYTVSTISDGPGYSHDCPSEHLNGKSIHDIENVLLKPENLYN
# Sequence of CGRP1 receptor (CRLR/RAMP1 complex) of human neuroblastoma SK-N-MC cells (O60894 27-148, chain 2 of 2): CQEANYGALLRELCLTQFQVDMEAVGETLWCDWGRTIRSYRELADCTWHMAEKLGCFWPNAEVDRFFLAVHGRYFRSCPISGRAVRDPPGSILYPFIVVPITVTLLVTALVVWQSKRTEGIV
Binder,Peptide IC50,PEG-peptide IC50
Ac-WVTH[hArg]LAGLLS[Cit]SGGVV[hArg]KNFVPTDVGPFA[Phg]-NH2 (SMILES CC(=O)N[C@@H](Cc1c[nH]c2ccccc12)C(=O)N[C@H](C(=O)N[C@H](C(=O)N[C@@H](Cc1c[nH]cn1)C(=O)N[C@@H](CCCCNC(=N)N)C(=O)N[C@@H](CC(C)C)C(=O)N[C@@H](C)C(=O)NCC(=O)N[C@@H](CC(C)C)C(=O)N[C@@H](CC(C)C)C(=O)N[C@@H](CO)C(=O)N[C@@H](CCCNC(N)=O)C(=O)N[C@@H](CO)C(=O)NCC(=O)NCC(=O)N[C@H](C(=O)N[C@H](C(=O)N[C@@H](CCCCNC(=N)N)C(=O)N[C@@H](CCCCN)C(=O)N[C@@H](CC(N)=O)C(=O)N[C@@H](Cc1ccccc1)C(=O)N[C@H](C(=O)N1CCC[C@H]1C(=O)N[C@H](C(=O)N[C@@H](CC(=O)O)C(=O)N[C@H](C(=O)NCC(=O)N1CCC[C@H]1C(=O)N[C@@H](Cc1ccccc1)C(=O)N[C@@H](C)C(=O)N[C@H](C(N)=O)c1ccccc1)C(C)C)[C@@H](C)O)C(C)C)C(C)C)C(C)C)[C@@H](C)O)C(C)C) [SEQ ID NO 925],6.78 nM,–
"Ac-WVTH[Cit]LAGLLS[Cit]SGGVV[hArg]KNFVPTDVGP[Igl]AF-NH2 (also: PEG-conjugated, in most cases at Lys25) [PEG-peptide of SEQ ID NO 930]",–,126 nM
WVTHXLAGLLSXSGGVVXKNXVPTDVGPXAF (Ac-WVTH[Cit]LAGLLS[Cit]SGGVV[hArg]KN[pI-Phe]VPTDVGP[pI-Phe]AF-NH2; PEG-conjugated (Table 2C: in most cases at Lys^25)) [PEG-peptide of SEQ ID NO 928],–,11.4 nM
WVTHXLAGLLSXSGGVVRKNFVPTDVGXFAF (Ac-WVTH[Cit]LAGLLS[Cit]SGGVVRKNFVPTDVG[Oic]FAF-NH2) [SEQ ID NO 920],0.85 nM,–
WVTHXLAGLLSXSGGVVRKNFVPTDVGPFAX (Ac-WVTH[Cit]LAGLLS[Cit]SGGVVRKNFVPTDVGPFA[pI-Phe]-NH2) [SEQ ID NO 923],2.24 nM,–
WVTHXLAGLLSXSGGVVRKNXVPTDVGPFAX (Ac-WVTH[Cit]LAGLLS[Cit]SGGVVRKN[pI-Phe]VPTDVGPFA[pI-Phe]-NH2) [SEQ ID NO 922],2.21 nM,–
WVTHXLAGLLSXSGGVVRKNFVXTDVGXFAF (Ac-WVTH[Cit]LAGLLS[Cit]SGGVVRKNFV[Oic]TDVG[Oic]FAF-NH2) [SEQ ID NO 921],0.93 nM,–
WVTHXLAGLLSXSGGVVXKNFVPTDVGPXAF (Ac-WVTH[hArg]LAGLLS[Cit]SGGVV[hArg]KNFVPTDVGP[2-Nal]AF-NH2) [SEQ ID NO 926],0.88 nM,–
WVTHXLAGLLSXSGGVVXKNFVPTDVGPXAF (Ac-WVTH[hArg]LAGLLS[Cit]SGGVV[hArg]KNFVPTDVGP[2-Nal]AF-NH2; PEG-conjugated (Table 2C: in most cases at Lys^25)) [PEG-peptide of SEQ ID NO 926],–,2.39 nM
WVTHXLAGLLSXSGGVVXKNFVPTDVGPFAF (Ac-WVTH[Cit]LAGLLS[Cit]SGGVV[hArg](30 KPEGald)NFVPTDVGPFAF-NH2) [PEG-peptide of SEQ ID NO 941],–,7.76 nM
WVTHXLAGLLSXSGGVVXKNFVPTDVGPXAF (Ac-WVTH[Cit]LAGLLS[Cit]SGGVV[hArg]KNFVPTDVGP[Bip]AF-NH2; PEG-conjugated (Table 2C: in most cases at Lys^25)) [PEG-peptide of SEQ ID NO 929],–,5.58 nM
WVTHXLAGLLSXSGGVVXKNFVPTDVGPXAF (Ac-WVTH[Cit]LAGLLS[Cit]SGGVV[hArg]KNFVPTDVGP[1-Nal]AF-NH2; PEG-conjugated (Table 2C: in most cases at Lys^25)) [PEG-peptide of SEQ ID NO 927],–,2.54 nM
WVTHXLAGLLSXSGGVVXKNFVPTDVGPXAF (Ac-WVTH[hArg]LAGLLS[Cit]SGGVV[hArg]KNFVPTDVGP[1-Nal]AF-NH2) [SEQ ID NO 924],2.18 nM,–
Ac-WVTH[Cit]LAGLLS[Cit]SGGVVRKNFVPTDVGPKAF-NH2 (SMILES CC(=O)N[C@@H](Cc1c[nH]c2ccccc12)C(=O)N[C@H](C(=O)N[C@H](C(=O)N[C@@H](Cc1c[nH]cn1)C(=O)N[C@@H](CCCNC(N)=O)C(=O)N[C@@H](CC(C)C)C(=O)N[C@@H](C)C(=O)NCC(=O)N[C@@H](CC(C)C)C(=O)N[C@@H](CC(C)C)C(=O)N[C@@H](CO)C(=O)N[C@@H](CCCNC(N)=O)C(=O)N[C@@H](CO)C(=O)NCC(=O)NCC(=O)N[C@H](C(=O)N[C@H](C(=O)N[C@@H](CCCNC(=N)N)C(=O)N[C@@H](CCCCN)C(=O)N[C@@H](CC(N)=O)C(=O)N[C@@H](Cc1ccccc1)C(=O)N[C@H](C(=O)N1CCC[C@H]1C(=O)N[C@H](C(=O)N[C@@H](CC(=O)O)C(=O)N[C@H](C(=O)NCC(=O)N1CCC[C@H]1C(=O)N[C@@H](CCCCN)C(=O)N[C@@H](C)C(=O)N[C@@H](Cc1ccccc1)C(N)=O)C(C)C)[C@@H](C)O)C(C)C)C(C)C)C(C)C)[C@@H](C)O)C(C)C) [SEQ ID NO 918],1.48 nM,–

# Continued, values first:
Peptide IC50,PEG-peptide IC50,Binder
4.58 nM,–,Ac-WVTH[Cit]LAGLLS[Cit]SGGVV[hArg]KNFVPTDVGP[Igl]AF-NH2 [SEQ ID NO 930]
1.45 nM,–,Ac-WVTH[Cit]LAGELS[Cit]KGGVV[hArg]KNFVPTDVG[Oic]FAF-NH2 [SEQ ID NO 943]
1.16 nM,–,WVTHXLAGLLSXSGGVVXKNXVPTDVGPXAF (Ac-WVTH[Cit]LAGLLS[Cit]SGGVV[hArg]KN[pI-Phe]VPTDVGP[pI-Phe]AF-NH2) [SEQ ID NO 928]
13 nM,–,Ac-KWVTH[Cit]LAGLLS[Cit]SGGVVRKNFVPTDVGPKAF-NH2 (SMILES CC(=O)N[C@@H](CCCCN)C(=O)N[C@@H](Cc1c[nH]c2ccccc12)C(=O)N[C@H](C(=O)N[C@H](C(=O)N[C@@H](Cc1c[nH]cn1)C(=O)N[C@@H](CCCNC(N)=O)C(=O)N[C@@H](CC(C)C)C(=O)N[C@@H](C)C(=O)NCC(=O)N[C@@H](CC(C)C)C(=O)N[C@@H](CC(C)C)C(=O)N[C@@H](CO)C(=O)N[C@@H](CCCNC(N)=O)C(=O)N[C@@H](CO)C(=O)NCC(=O)NCC(=O)N[C@H](C(=O)N[C@H](C(=O)N[C@@H](CCCNC(=N)N)C(=O)N[C@@H](CCCCN)C(=O)N[C@@H](CC(N)=O)C(=O)N[C@@H](Cc1ccccc1)C(=O)N[C@H](C(=O)N1CCC[C@H]1C(=O)N[C@H](C(=O)N[C@@H](CC(=O)O)C(=O)N[C@H](C(=O)NCC(=O)N1CCC[C@H]1C(=O)N[C@@H](CCCCN)C(=O)N[C@@H](C)C(=O)N[C@@H](Cc1ccccc1)C(N)=O)C(C)C)[C@@H](C)O)C(C)C)C(C)C)C(C)C)[C@@H](C)O)C(C)C) [SEQ ID NO 945]
2.37 nM,–,WVTHXLAGLLSXSGGVVXKNFVPTDVGPFAF (Ac-WVTH[Cit]LAGLLS[hArg]SGGVV[Guf]KNFVPTDVGPFAF-NH2) [SEQ ID NO 935]
1.65 nM,–,WVTHXLAGLLSXSGGVVXKNFVPTDVGXXAF (Ac-WVTH[Cit]LAGLLS[Cit]SGGVV[hArg]KNFVPTDVG[Oic][2-Nal]AF-NH2) [SEQ ID NO 934]
1.39 nM,–,WVTHXLAGLLSXSGGVVXKNFVPTDVGPFAF (Ac-WVTH[Cit]LAGLLS[Cit]SGGVV[3G-Dpr]KNFVPTDVGPFAF-NH2) [SEQ ID NO 938]
89.9 nM,–,WVTHXLAGLLSXSGGVVXKNFVPTDVGPXAF (Ac-WVTH[Cit]LAGLLS[Cit]SGGVV[hArg]KNFVPTDVGP[Tic]AF-NH2) [SEQ ID NO 947]
1.28 nM,–,WVTHXLAGLLSXSGGVVXKNFVPTDVGPXAF (Ac-WVTH[Cit]LAGLLS[Cit]SGGVV[hArg]KNFVPTDVGP[1-Nal]AF-NH2) [SEQ ID NO 927]
1.76 nM,–,WVTHXLAGLLSXSGGVVXKNFVPTDVGPXAF (Ac-WVTH[Cit]LAGLLS[Cit]SGGVV[hArg]KNFVPTDVGP[Bip]AF-NH2) [SEQ ID NO 929]
2.41 nM,–,WVTHXLAGLLSXSGGVVXKNFVPTDVGPFAF (Ac-WVTH[Cit]LAGLLS[hArg]SGGVV[BhArg]KNFVPTDVGPFAF-NH2) [SEQ ID NO 936]
1.31 nM,–,WVTHXLAGLLSXSGGVVXKNFVXTDVGXFAF (Ac-WVTH[Cit]LAGLLS[Cit]SGGVV[hArg]KNFV[Oic]TDVG[Oic]FAF-NH2) [SEQ ID NO 932]
2.87 nM,–,WVTHXLAGLLSXSGGVVXKNFVPTDVGPFAF (Ac-WVTH[Cit]LAGLLS[Cit]SGGVV[Cit]KNFVPTDVGPFAF-NH2) [SEQ ID NO 937]
0.88 nM,–,WVTHXLAGLLSXSGGVVXKNFVPTDVGXXAF (Ac-WVTH[Cit]LAGLLS[Cit]SGGVV[hArg]KNFVPTDVG[Oic][1-Nal]AF-NH2) [SEQ ID NO 933]
0.85 nM,–,Ac-WVTH[Cit]LAGELS[hArg]KGGVV[hArg]KNFVPTDVG[Oic][1Nal]AF-NH2 (lactam 9-13; SMILES CC(=O)N[C@@H](Cc1c[nH]c2ccccc12)C(=O)N[C@H](C(=O)N[C@H](C(=O)N[C@@H](Cc1c[nH]cn1)C(=O)N[C@@H](CCCNC(N)=O)C(=O)N[C@@H](CC(C)C)C(=O)N[C@@H](C)C(=O)NCC(=O)N[C@H]1CCC(=O)NCCCC[C@@H](C(=O)NCC(=O)NCC(=O)N[C@H](C(=O)N[C@H](C(=O)N[C@@H](CCCCNC(=N)N)C(=O)N[C@@H](CCCCN)C(=O)N[C@@H](CC(N)=O)C(=O)N[C@@H](Cc2ccccc2)C(=O)N[C@H](C(=O)N2CCC[C@H]2C(=O)N[C@H](C(=O)N[C@@H](CC(=O)O)C(=O)N[C@H](C(=O)NCC(=O)N2[C@H](C(=O)N[C@@H](Cc3cccc4ccccc34)C(=O)N[C@@H](C)C(=O)N[C@@H](Cc3ccccc3)C(N)=O)C[C@@H]3CCCC[C@@H]32)C(C)C)[C@@H](C)O)C(C)C)C(C)C)C(C)C)NC(=O)[C@H](CCCCNC(=N)N)NC(=O)[C@H](CO)NC(=O)[C@H](CC(C)C)NC1=O)[C@@H](C)O)C(C)C) [SEQ ID NO 944]
0.83 nM,–,Ac-WVTH[hArg]LEGLLK[Cit]SGGVV[hArg]KNFVPTDVG[Oic]FAF-NH2 (lactam (positions not given here); not fully specified; printed as Ac-WVTH[hArg]LEGLLK[Cit]SGGVV[hArg]KNFVPTDVG[Oic]FAF-NH2) [SEQ ID NO 942]
1.85 nM,–,Ac-WVTH[Cit]LAGLLS[Cit]SGGV[Nle]RKNFVPTDVGPFAF-NH2 (SMILES CCCC[C@H](NC(=O)[C@@H](NC(=O)CNC(=O)CNC(=O)[C@H](CO)NC(=O)[C@H](CCCNC(N)=O)NC(=O)[C@H](CO)NC(=O)[C@H](CC(C)C)NC(=O)[C@H](CC(C)C)NC(=O)CNC(=O)[C@H](C)NC(=O)[C@H](CC(C)C)NC(=O)[C@H](CCCNC(N)=O)NC(=O)[C@H](Cc1c[nH]cn1)NC(=O)[C@@H](NC(=O)[C@@H](NC(=O)[C@H](Cc1c[nH]c2ccccc12)NC(C)=O)C(C)C)[C@@H](C)O)C(C)C)C(=O)N[C@@H](CCCNC(=N)N)C(=O)N[C@@H](CCCCN)C(=O)N[C@@H](CC(N)=O)C(=O)N[C@@H](Cc1ccccc1)C(=O)N[C@H](C(=O)N1CCC[C@H]1C(=O)N[C@H](C(=O)N[C@@H](CC(=O)O)C(=O)N[C@H](C(=O)NCC(=O)N1CCC[C@H]1C(=O)N[C@@H](Cc1ccccc1)C(=O)N[C@@H](C)C(=O)N[C@@H](Cc1ccccc1)C(N)=O)C(C)C)[C@@H](C)O)C(C)C) [SEQ ID NO 940]
